Measured values as given in patent US11447809B2, “Evolution of tRNA synthetases” (President and Fellows of Harvard College, priority 2017, dated 2022).

B1: MmPylRS(IPYE): M. mazei PylRS with transplanted PACE mutations V31I, T56P, H62Y, A100E (protein, UniProt Q8PWY1 1-454, looked up, variant V31I T56P H62Y A100E)
Pyrrolysine--tRNA ligase: MDKKPLNTLISATGLWMSRTGTIHKIKHHEISRSKIYIEMACGDHLVVNNSRSSRPARALRYHKYRKTCKRCRVSDEDLNKFLTKANEDQTSVKVKVVSEPTRTKKAMPKSVARAPKPLENTEAAQAQPSGSKFSPAIPVSTQESVSVPASVSTSISSISTGATASALVKGNTNPITSMSAPVQASAPALTKSQTDRLEVLLNPKDEISLNSGKPFRELESELLSRRKKDLQQIYAEERENYLGKLEREITRFFVDRGFLEIKSPILIPLEYIERMGIDNDTELSKQIFRVDKNFCLRPMLAPNLYNYLRKLDRALPDPIKIFEIGPCYRKESDGKEHLEEFTMLNFCQMGSGCTRENLESIITDFLNHLGIDFKIVGDSCMVYGDTLDVMHGDLELSSAVVGPIPLDREWGIDKPWIGAGFGLERLLKVKHDFKNIKRAARSESYYNGISTNL
B2: MbPylRS(IPYE): M. barkeri PylRS with transplanted PACE mutations V31I, T56P, H62Y, A100E (protein, UniProt Q6WRH6 1-419, looked up, variant V31I T56P H62Y A100E)
Pyrrolysine--tRNA ligase: MDKKPLDVLISATGLWMSRTGTLHKIKHHEISRSKIYIEMACGDHLVVNNSRSCRPARAFRYHKYRKTCKRCRVSDEDINNFLTRSTESKNSVKVRVVSEPKVKKAMPKSVSRAPKPLENSVSAKASTNTSRSVPSPAKSTPNSSVPASAPAPSLTRSQLDRVEALLSPEDKISLNMAKPFRELEPELVTRRKNDFQRLYTNDREDYLGKLERDITKFFVDRGFLEIKSPILIPAEYVERMGINNDTELSKQIFRVDKNLCLRPMLAPTLYNYLRKLDRILPGPIKIFEVGPCYRKESDGKEHLEEFTMVNFCQMGSGCTRENLEALIKEFLDYLEIDFEIVGDSCMVYGDTLDIMHGDLELSSAVVGPVSLDREWGIDKPWIGAGFGLERLLKVMHGFKNIKRASRSESYYNGISTNL

System: luciferase position 361 and sfGFP amber suppression
Assay: Amber suppression assays using several different reporters (luciferase and sfGFP)
Assay type: cell-based, E. coli
Settings: BocK; IPYE variant vs parent enzyme; FIGS. 9B-9D
Description: S1030 cells (25 μL) were electroporated with the appropriate plasmid(s) and recovered in SOC media (New England Biolabs) for 1 h while shaking at 37° C. Transformed cells were plated and grown overnight at 37° C. on LB agar containing the antibiotics required for plasmid maintenance. Single colonies were used to inoculate 2-3 mL of DRM containing antibiotics and were grown overnight at 37° C. while shaking at 230 rpm. The saturated overnight cultures were diluted 100-fold in a 96-well deep well plate using 1 mL of DRM containing the required antibiotic and supplemented with 1 mM ncAA where denoted. […] The plate continued to incubate with shaking at 37° C. for an additional 2-3 h until maximum luminescence signal was observed. Each luminescence measurement was taken on 150 μL of each culture, which had been transferred to a 96-well black wall, clear bottom plate (Costar). The A600 and luminescence measurements from each well were taken using an Infinite M1000 Pro microplate reader (Tecan). […] The raw luminescence value from each well was divided by the background-subtracted A600 value of the corresponding well to provide the luminescence value normalized to cell density. […]

Row | Molecule | activity in amber suppression assays using several different reporters
1 | B1 | improved, albeit more modestly
2 | B2 | dramatically enhanced
